Assays:
[1] = molecular target: wild-type human tau 441 with GFP fused at the N-terminal (human) (UniProt P10636); test: immunocytochemistry, SHSY5Y cells 36 h after transfection
[2] = molecular target: tau mutant M123 (triple mutant, M1+M2+M3) with GFP fused at the N-terminal (human) (UniProt P10636); test: as above
[3] = molecular target: tau mutant M123 (triple mutant, M1+M2+M3) with GFP fused at the N-terminal (human) (UniProt P10636); test: immunocytochemistry, transfected SHSY5Y cells

Chain of tau mutant M123 (triple mutant, M1+M2+M3) with GFP fused at the N-terminal (human) (P10636 other isoform, or with tags, fused parts or gaps mutant): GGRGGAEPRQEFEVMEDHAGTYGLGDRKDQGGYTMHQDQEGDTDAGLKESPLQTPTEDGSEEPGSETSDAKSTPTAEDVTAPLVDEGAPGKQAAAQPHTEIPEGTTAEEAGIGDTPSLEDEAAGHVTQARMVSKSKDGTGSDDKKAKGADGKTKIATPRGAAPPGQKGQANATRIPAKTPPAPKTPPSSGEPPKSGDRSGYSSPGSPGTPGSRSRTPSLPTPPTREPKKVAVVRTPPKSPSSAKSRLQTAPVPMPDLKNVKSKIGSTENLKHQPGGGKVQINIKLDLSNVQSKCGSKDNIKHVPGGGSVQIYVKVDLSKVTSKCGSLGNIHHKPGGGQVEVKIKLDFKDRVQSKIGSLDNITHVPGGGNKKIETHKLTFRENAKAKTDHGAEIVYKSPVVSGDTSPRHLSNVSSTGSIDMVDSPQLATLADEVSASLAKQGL
Chain of wild-type human tau 441 with GFP fused at the N-terminal (human) (P10636 other isoform, or with tags, fused parts or gaps): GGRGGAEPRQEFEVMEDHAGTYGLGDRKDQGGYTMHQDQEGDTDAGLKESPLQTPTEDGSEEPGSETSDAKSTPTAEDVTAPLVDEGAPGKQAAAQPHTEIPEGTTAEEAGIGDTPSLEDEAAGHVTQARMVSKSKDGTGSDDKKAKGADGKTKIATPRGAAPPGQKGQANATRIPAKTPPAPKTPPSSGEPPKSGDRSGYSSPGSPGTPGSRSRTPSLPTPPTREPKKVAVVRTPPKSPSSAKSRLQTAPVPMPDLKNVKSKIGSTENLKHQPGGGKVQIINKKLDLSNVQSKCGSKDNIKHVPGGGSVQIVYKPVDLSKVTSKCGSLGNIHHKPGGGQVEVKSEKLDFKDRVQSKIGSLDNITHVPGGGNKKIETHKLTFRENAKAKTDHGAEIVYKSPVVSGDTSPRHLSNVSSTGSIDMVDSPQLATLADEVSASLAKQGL

For AT8 antibody (S202/T205 specific), the percentage of transfected cells with AT8 immunolabeling [1] was 9.17% and the percentage of transfected cells with AT8 immunolabeling [2] was 83.2%.

AT180 antibody (phosphoepitope T231) gave a percentage of transfected cells AT180 immunopositive [3] of 22.1%.

— US20110016537A1, “Cellular model of tauopathies for lead identification and drug discovery” (Georg-August-Universitat Gottingen Stifung offentl, priority 2003, published 2011)
